Reference: PMC4482583, “The Dimerization State of the Mammalian High Mobility Group Protein AT-Hook 2 (HMGA2)” (PLoS ONE, 2015)
No end group written: not given here. TMR = tetramethylrhodamine-5-maleimide

What was measured:
HMGA2Δ95–108 = target: T1, HMGA2Δ95–108 (mouse, UniProt P52927 1-94); assay: SEC; CTP-TMR incubated with HMGA2Δ95–108 for 30 minutes at 24°C, resolved on Sephacryl S-100 HR (1×50 cm) in BPES buffer; OD556 and SDS-PAGE of fractions; details: both partners purified
T1 construct: also called mutant that lacks the negatively charged C-terminus; source: made by PCR-based site directed mutagenesis, purified as described previously [26]
T1 sequence (looked up): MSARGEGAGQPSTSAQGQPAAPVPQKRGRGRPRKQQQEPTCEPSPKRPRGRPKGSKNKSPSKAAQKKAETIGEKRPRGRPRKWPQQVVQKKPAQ

[1] = target: the molecule itself; assay: cross-linking; EDC (2 mM, zero-length) in MES buffer (10 mM MES, pH 5.5, 50 mM NaCl), 2 hours at 24°C; 29-116 μM protein; 15% SDS-PAGE, Coomassie
[2] = target: the molecule itself; assay: FRET or BRET; 20 nM HMGA2-FM titrated with HMGA2-TMR in 50 mM Tris-HCl (pH 8.0), 200 mM NaCl; excitation 492 nm, read at 518 nm
[3] = target: the molecule itself; assay: cross-linking; EDC cross-linking of the cysteineless mutant; data not shown

B1: C-terminal peptide (CTP) of HMGA2 labeled with tetramethylrhodamine-5-maleimide (CTP-TMR) (peptide)
peptide: C(TMR)ETEETSSQESAEED
notes: first residue of the printed peptide H-CETEETSSQESAEED-OH; the cysteine that carries the label; the negatively charged C-terminus of HMGA2, mouse; 14 residues; also called the C-terminal peptide; source: synthetic peptide (custom-synthesized by Advanced ChemTech, Inc.), labeled with TMR, purified on SP-sepharose
B1: binds (HMGA2Δ95–108).

B2: mammalian high mobility group protein AT-hook 2 (HMGA2) (natural protein, mouse, UniProt P52927 1-108, looked up)
chain: MSARGEGAGQPSTSAQGQPAAPVPQKRGRGRPRKQQQEPTCEPSPKRPRGRPKGSKNKSPSKAAQKKAETIGEKRPRGRPRKWPQQVVQKKPAQETEETSSQESAEED
notes: also called mouse HMGA2; recombinant HMGA2; source: recombinant, purified as described previously [26]
B2 was tested, and the “stoichiometry N” value [1] was 2.

B3: HMGA2 labeled with fluorescein-5-maleimide (HMGA2-FM) or tetramethylrhodamine-5-maleimide (HMGA2-TMR) (natural protein, mouse, UniProt P52927 1-108, looked up)
chain: MSARGEGAGQPSTSAQGQPAAPVPQKRGRGRPRKQQQEPTCEPSPKRPRGRPKGSKNKSPSKAAQKKAETIGEKRPRGRPRKWPQQVVQKKPAQETEETSSQESAEED
modifications: fluorescein-5-maleimide (FM) or tetramethylrhodamine-5-maleimide (TMR) on the cysteine residue
notes: labeled at its one cysteine residue; also called HMG-TMR; source: recombinant HMGA2, labeled with TMR or FM, purified (Sephadex G-50 spin columns, dialysis)
With B3 the “stoichiometry N” value [2] was 2.

B4: HMGA2C41G (natural protein, mouse, UniProt P52927 1-108, looked up)
chain: MSARGEGAGQPSTSAQGQPAAPVPQKRGRGRPRKQQQEPTGEPSPKRPRGRPKGSKNKSPSKAAQKKAETIGEKRPRGRPRKWPQQVVQKKPAQETEETSSQESAEED
notes: also called cysteineless mutant protein; source: made by PCR-based site directed mutagenesis, purified as described previously [26]
For B4, the “stoichiometry N” value [3] was 2.
